Source: US20120156193A1 (IMMUNAS PHARMA, published 2012)

Target: T1, A beta 1-40 oligomer (synthetic A beta1-40, HCl form, 0.1 mg/ml in PBS, incubated at 37 degrees C for one … (UniProt P05067 672-711))
T1 construct: domain: A beta 1-40; Non-fibrous assembly of many copies of the same peptide; also called A beta oligomer
Test: SPR, Biacore 3000, A beta oligomer on CM5 chip, antibody as analyte
Protocol: The analysis was carried out by Surface Plasmon Resonance (SPR) using Biacore 3000 (GE Healthcare Sciences).

Binder	Kd [nM]	koff [s⁻¹]	kon [M⁻¹ s⁻¹]
IR-099 antibody (antibody, V domains shown, Mouse monoclonal from a hybridoma) VH: DVQLVESGGGLVQPGGSRKLSCAASGFTFSRFGMHWVRQAPEKGLEWVAYISSGRSTIYYADTVKGRFTISRDNPKNTLFLQMTSLRSEDTAMYYCARGGGNYVGAMDYWGQGTSVTVSS VL: DAVMTQTPLSLPVSLGDQASISCRSSQSLENSNGNTYLNWYLQKPGQSPQLLIYRVSNRFSGVLDRFSGSGSGTDFTLKISRVEAEDLGVYFCLQVTHVPPTFGGGTKLEIK	9.3	0.00252	271000
IR-003 antibody (antibody, V domains shown, Mouse monoclonal from a hybridoma (BALB/c); constant regions are not) VH: QVTLKESGPGILQPSQTLSLTCSFSGFSLSTSGMGVSWIRQPSGKGLEWLAHIYWDDDKRYNPSLKSRLTISKDTSSNQVFLKITSVDTADTATYYCARRGEVRRRGYYAMDYWGQGTSVTVSS VL: DVVMTQTPLSLPVSLGDQASISCRSSQSLVHSNGNTYLHWYLQKPGQSPKLLIYKVSNRFSGVPDRFSGSGSGTDFTLKISRVEAEDLGVYFCSQSTHVPLTFGAGTKLELK	24.5	0.00232	94800
IR-103 antibody (antibody, V domains shown, Mouse monoclonal from a hybridoma) VH: DVQLVESGGGLVQPGGSRKLSCAASGFTFSSFGMHWVRQAPEKGLEWVAYISSGSSTIYYADTVKGRFTISRDNPKNTLFLQMTSLRSEDTAMYYCARSPLLRLQGLAYWGQGTLVTVSA VL: DVLMTQTPLSLPVSLGDQASISCRSSQSIVHSNGNTYLEWYLQKPGQSPKLLIYKVSNRFSGVPDRFSGSGSGTDFTLKISRVEAEDLGVYYCFQGSHVPPTFGGGTKLEIK	43.9	0.00571	130000
IR-148 antibody (antibody, V domains shown, Mouse monoclonal from a hybridoma) VH: DVQLVESGGGLVQPGGSRKLSCAASGFTFSSFGMHWVRQAPEKGLEWVAYISSGSSTIYYADTVKGRFTISRDNPKNTLFLQMTSLRSEDTAMYYCARDYYGMDYWGQGTSVTVSS VL: DVVMTQTPLSLPVSLGDQASISCRSSQSLVHSNGNTYLHWYLQKPGQSPKLLIYKVSNRFSGVPDRFSGSGSGTDFTLKISRVEAEDLGVYFCSQSTHVPLTFGAGTKLELK	38.6	0.000931	24100
IR-091 antibody (antibody, V domains shown, Mouse monoclonal from a hybridoma) VH: QVTLKESGPGILKPSQTLSLTCSFSGFSLSTSGMGVGWIRQPSGKGLEWLAHIWWDDDKYYNPSLKSQLTISKDTSRNQVFLKITSVDTADTATYYCARRGLRRGDYFDYWGQGTTLTVSS VL: DVLMTQTPLSLPVSLGDQASISCRSSQSIVHSNGNTYLEWYLQKPGQSPKLLIYKVSNRFSGVPDRFSGSGSGTDFTLKISRVEAEDLGVYYCFQGSHVPLTFGAGTKLELK	7.37	0.00188	255000
IR-130 antibody (antibody, V domains shown, Mouse monoclonal from a hybridoma) VH: EVKLVESGGGLVQPGGSLKLSCATSGFTFSDYYMYWVRQTPEKRLEWVAYISNGGGSTYYPDTVKGRFTISRDNAKNTLYLQMSRLKSEDTAMYYCARGTSYGSSLHYYAMDYWGQGTSVTVSS VL: DVVMTQTPLSLPVSLGDQASISCRSSQSLVHSNGNTYLHWYLQKPGQSPKLLIYKVSNRFSGVPDRFSGSGSGTDFTLKISRVEAEDLGVYFCSQSTHVPLTFGAGTKLELK	667	0.11	165000
